Test results published in patent US6835382B2, “Ii peptide therapeutics to enhance antigen presentation” (University of Massachusetts, priority 1996, dated 2004).
Non-standard residues stand in square brackets, D forms with d. hArg = N=C(N)NCCCC[C@H](N)C(=O)O; Cit = NC(=O)NCCC[C@H](N)C(=O)O; Orn = NCCC[C@H](N)C(=O)O

Biological target: T1, murine E^d MHC class II allele (Mus musculus, UniProt P01904+P01915)
T1 sequence (P01904 26-255): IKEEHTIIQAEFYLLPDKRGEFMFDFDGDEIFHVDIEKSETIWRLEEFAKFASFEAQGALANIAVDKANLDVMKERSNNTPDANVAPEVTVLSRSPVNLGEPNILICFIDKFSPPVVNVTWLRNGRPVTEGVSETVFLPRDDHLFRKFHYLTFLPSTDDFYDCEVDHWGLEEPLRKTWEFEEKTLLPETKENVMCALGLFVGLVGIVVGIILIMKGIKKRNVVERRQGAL
T1 sequence (P01915 27-264 limits assumed): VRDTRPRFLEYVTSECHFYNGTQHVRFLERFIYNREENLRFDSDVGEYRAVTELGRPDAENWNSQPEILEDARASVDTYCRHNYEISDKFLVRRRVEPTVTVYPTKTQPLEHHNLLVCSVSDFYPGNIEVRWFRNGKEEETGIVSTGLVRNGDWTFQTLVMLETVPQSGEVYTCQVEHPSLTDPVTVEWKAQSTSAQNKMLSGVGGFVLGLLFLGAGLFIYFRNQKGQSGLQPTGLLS
Test: processed antigen assay, E^d allele (APC pulsed with native HEL)
Assay type: cell-based
Set-up: The A20 and CH27 B cell lymphoma lines express H-2^d and H-2^k alleles, respectively; endogenous in cells; host or cells: A20 B cell lymphoma (mitomycin C-treated or paraformaldehyde-fixed)
Conditions: AE peptide 64 μM; for T cell response relative to baseline (None = 1.0), 5 μM HEL E^d, first value / T cell response relative to baseline (None = 1.0), 5 μM HEL E^d, second value / T cell response relative to baseline (None = 1.0), 10 μM HEL E^d, first value / T cell response relative to baseline (None = 1.0), 10 μM HEL E^d, second value / T cell response relative to baseline (None = 1.0), 20 μM HEL E^d, first value / T cell response relative to baseline (None = 1.0), 20 μM HEL E^d, second value: Table 29; for T cell response relative to baseline (None = 1.0), 5 μM HEL E^d, first value / T cell response relative to baseline (None = 1.0), 5 μM HEL E^d, second value: native HEL prepulse 5 μM; for T cell response relative to baseline (None = 1.0), 5 μM HEL E^d, first value / T cell response relative to baseline (None = 1.0), 10 μM HEL E^d, first value / T cell response relative to baseline (None = 1.0), 20 μM HEL E^d, first value: supernatant dilution 1:4 (first value); for T cell response relative to baseline (None = 1.0), 5 μM HEL E^d, second value / T cell response relative to baseline (None = 1.0), 10 μM HEL E^d, second value / T cell response relative to baseline (None = 1.0), 20 μM HEL E^d, second value: supernatant dilution 1:8 (second value); for T cell response relative to baseline (None = 1.00), E^d: Table 31; for Activity in processed antigen assay, E^d (baseline = 1.0): Table 34, native HEL 10 μM prepulse, supernatant 1:8
Description: In a third type of assay, the “processed antigen assay”, certain of the AE101 series of peptides inhibit stimulation of specific T cell hybridomas by antigenic peptides which are derived from the endogenous processing of a native protein antigen. This assay, which is related to the peptide prepulse assay, is performed by incubating APC with native protein antigen for 8 h, after which the pulsed APC are washed and treated with mitomycin C. Those pulsed APC are then combined with AE101 series peptides and T cell hybridomas and are incubated for 24 h. After that incubation, an aliquot of the culture supernatant is transferred to a second culture to measure T cell stimulation, as reflected in the effect of released interleukins on the growth of an interleukin-dependent, indicator cell line. During the 8 h incubation with native protein antigen, the protein antigen is taken into the APC. The native protein enters the processing pathway within the APC, where it is enzymatically cleaved to peptide fragments. Those peptide fragments with high affinity for the particular MHC class II molecules produced by the APC form antigenic peptide/MHC class II complexes which are transported to the cell surface. At the cell surface, the MHC class II molecules are contacted by the AE101 peptides, which cause the release of the antigenic peptide by the same mechanism proposed for the “peptide prepulse” assay above.
The “processed antigen assay” was carried out under essentially the same conditions as the “peptide prepulse assay”, with the following modifications. Untreated APC were incubated at 1×10^6/mL in 24-well plates (1 mL/well) with native protein antigen for 8 h. Following that incubation, the pulsed APC were washed, treated with mitomycin C, and washed again. AE101 series peptide was added at 64 μM, 16 μM, 4 μM, and 1 μM concentrations for 24 h in the presence of the T cell hybridoma specific for the antigenic peptide. Interleukin release from these cultures was measured by proliferation of HT-2 cells to interleukins in supernatants transferred from the primary culture. The baseline T cell response was measured by culturing T hybridoma cells with the native antigen-prepulsed APC in the absence of AE101 series peptides.
The “processed antigen assay” was carried out under essentially the same conditions as the “peptide prepulse” assay, with the following modifications. Untreated APC were incubated at 1×10^6/mL in 24-well plates (1 mL/well) with native protein antigen for 8 h. Following incubation, the pulsed APC were washed, treated with mitomycin C, and were washed again. The assay conditions were then as described for “peptide prepulse” above. The baseline T cell response was measured by culturing T hybridoma cells with the native antigen-prepulsed APC in the absence of AE101 peptides.
Table 2.9: Activities of substitution series at Leucine^80 in AE114 in a processed antigen assay. […] The results in this assay constitute, relatively, a mirror image of the result in the simultaneous assay (Example 1, Table 7) and parallel those of the antigenic peptide prepulse assay (Example 5, Table 24). Untreated APC were incubated with native HEL, instead of antigenic peptide, for 8 h. After incubation, the pulsed cells were washed and mitomycin C treated before being cocultured with AE-peptides and T cell hybridomas. Wells containing only T cells and native HEL-prepulsed APC were used to determine the Baseline response, or 1, in the absence of AE peptides. The concentration of AE peptide used was 64 μM for these assays. The supernatant dilutions used in the HT-2 cell assay were 1:4 (first value) and 1:8 (second value).

[1] = Table 30, native HEL prepulse 10 μM, supernatant dilution 1:8
[2] = native HEL prepulse 10 μM, supernatant dilution 1:4
[3] = Table 32, native HEL prepulse 20 μM, supernatant dilution 1:4
[4] = Table 33, native HEL prepulse 10 μM, supernatant dilution 1:8

## Ac-LRMK Y PK-NH2 (Ac-LRMKYPK-NH2; not fully specified; printed as Ac-LRMK Y PK-NH2) [AE235]
  T cell response relative to baseline (None = 1.0), 5 μM HEL E^d, first value: 0.33,
  T cell response relative to baseline (None = 1.0), 5 μM HEL E^d, second value: 0.38
  Activity in processed antigen assay, E^d (baseline = 1.0): 0.19
Native HEL prepulse 10 μM
  T cell response relative to baseline (None = 1.0), 10 μM HEL E^d, first value: 0.42,
  T cell response relative to baseline (None = 1.0), 10 μM HEL E^d, second value: 0.39
Native HEL prepulse 20 μM
  T cell response relative to baseline (None = 1.0), 20 μM HEL E^d, first value: 0.71,
  T cell response relative to baseline (None = 1.0), 20 μM HEL E^d, second value: 0.56
[1]
  T cell response relative to baseline (None = 1.0), E^d: 0.19
[2]
  T cell response relative to baseline (None = 1.00), E^d: 0.53
[3]
  T cell response relative to baseline (None = 1.0), E^d: 0.46
[4]
  T cell response relative to baseline (None = 1.0), E^d: 0.45

## Ac-LRMK l PK-NH2 [AE164]
[1]
  T cell response relative to baseline (None = 1.0), E^d: 0.64

## Ac-LRMKLP F-NH2 (Ac-LRMKLPF-NH2) [AE248]
[2]
  T cell response relative to baseline (None = 1.00), E^d: 0.30

## Ac-LRMKLP N-NH2 (Ac-LRMKLPN-NH2) [AE246]
[3]
  T cell response relative to baseline (None = 1.0), E^d: 0.72

## Ac-LRMKLP k-NH2 [AE166]
[1]
  T cell response relative to baseline (None = 1.0), E^d: 0.36

## Ac-LRMKLPK-NH2 [AE114]
  T cell response relative to baseline (None = 1.0), 5 μM HEL E^d, first value: 0.23,
  T cell response relative to baseline (None = 1.0), 5 μM HEL E^d, second value: 0.37
  Activity in processed antigen assay, E^d (baseline = 1.0): 0.22
Native HEL prepulse 10 μM
  T cell response relative to baseline (None = 1.0), 10 μM HEL E^d, first value: 0.29,
  T cell response relative to baseline (None = 1.0), 10 μM HEL E^d, second value: 0.28
Native HEL prepulse 20 μM
  T cell response relative to baseline (None = 1.0), 20 μM HEL E^d, first value: 0.53,
  T cell response relative to baseline (None = 1.0), 20 μM HEL E^d, second value: 0.44
[1]
  T cell response relative to baseline (None = 1.0), E^d: 0.22
[2]
  T cell response relative to baseline (None = 1.00), E^d: 0.49
[3]
  T cell response relative to baseline (None = 1.0), E^d: 0.40
[4]
  T cell response relative to baseline (None = 1.0), E^d: 0.37

## Ac-LRMKLP[Cit]-NH2 [AE241]
[3]
  T cell response relative to baseline (None = 1.0), E^d: 0.63

## Ac-LRMK[Orn]PK-NH2 [AE225]
  T cell response relative to baseline (None = 1.0), 5 μM HEL E^d, first value: 0.26,
  T cell response relative to baseline (None = 1.0), 5 μM HEL E^d, second value: 0.38
Native HEL prepulse 10 μM
  T cell response relative to baseline (None = 1.0), 10 μM HEL E^d, first value: 0.32,
  T cell response relative to baseline (None = 1.0), 10 μM HEL E^d, second value: 0.30
Native HEL prepulse 20 μM
  T cell response relative to baseline (None = 1.0), 20 μM HEL E^d, first value: 0.59,
  T cell response relative to baseline (None = 1.0), 20 μM HEL E^d, second value: 0.48

## Ac-LRNKNPF-NH2 [AE348]
[2]
  T cell response relative to baseline (None = 1.00), E^d: 0.81

## Ac-LRNKNPK-NH2 [AE349]
[2]
  T cell response relative to baseline (None = 1.00), E^d: 0.64

## Ac-LR[Orn]KLPK-NH2 [AE195]
[2]
  T cell response relative to baseline (None = 1.00), E^d: 0.31

## Ac-L[Cit]MKNPK-NH2 [AE342]
[2]
  T cell response relative to baseline (None = 1.00), E^d: 0.64

## Ac-L[Cit]NKLPK-NH2 [AE343]
[2]
  T cell response relative to baseline (None = 1.00), E^d: 0.69

## Ac-Y K MKLPKSAK-NH2 [AE134]
[3]
  T cell response relative to baseline (None = 1.0), E^d: 0.50

## Ac-Y[Cit]MKLPKSAK-NH2 [AE131]
[2]
  T cell response relative to baseline (None = 1.00), E^d: 0.49

## Ac-Y[hArg]MKLPKSAK-NH2 [AE132]
[3]
  T cell response relative to baseline (None = 1.0), E^d: 0.48
